Data from US11111484B2, “Streptococcus bacteriophage lysins for detection and treatment of gram positive bacteria” (priority 2011, dated 2021).
Several values for one entry are separate records, joined by “and”; a condition that tells them apart may be missing. Equal values may be shown once. Entries after “also recorded” stand apart in the source; their conditions may differ. Read-outs that look alike come from different tables or passages of the source.

Key:
S. dysgalactiae 21597 = test: ΔPlySs1 OD600 lysis, 1 hr, optimal buffering conditions; format: cell-based, Streptococcus dysgalactiae
S. salivarius 9222 = test: as above; format: cell-based
S. rattus BHT = test: as above; format: cell-based, Streptococcus rattus
M. luteus 4698 = test: as above; format: cell-based
B. anthracis ΔSterne = format: cell-based, Bacillus anthracis
MRSA MW2 = test: CFU studies, bactericidal effect; format: cell-based, Staphylococcus aureus; settings: 128 μg/ml PlySs2, 1 hour
Description: (§1) Log-phase bacteria were resuspended in buffer A to an OD600 of 0.1 (=0.5 McFarland≈10^8 CFU/ml). PlySs2 was added at 128 μg/ml to polypropylene microtiter plates (Costar) in triplicate for each test organism. Plates were sealed and incubated at 37° C. with shaking every 5 minutes for 1 hour. After 1 hour of incubation, cells were serially diluted in 10-fold increments and plated on BHI. Triplicate controls for each strain were performed with buffer B replacing PlySs2.

S. agalactiae = test: CFU studies, bactericidal effect; format: cell-based, Streptococcus agalactiae; settings: 128 μg/ml PlySs2, 60 mins
Description: as §1

E. coli = test: MIC studies; format: cell-based, Escherichia coli; settings: E. coli negative control
Description: The Wiegand, et al. protocol to determine minimum inhibitory concentrations was followed with adjustments detailed below. A final suspension of ≈5×10^5 cells/ml in MHB (or BHI for S. pyogenes) resulted after Sterile-filtered lysin or vehicle was added at the appropriate concentration. These tests were distributed within a 96-well microtiter plate. The MIC's were determined, in this experiment, by detection of pellet formation in the bottom of rounded polysterene plate wells. They were also corroborated colorimetrically with alamarBlue®.

[1] = tested on: MRSA strain MW2 and S. pyogenes strain MGAS5005; test: murine septicemia model, mixed MRSA and S. pyogenes infection; format: in vivo, FVB/NJ mice; settings: PlySs2 2 mg, ClyS 1 mg + PlyC 1 mg
Description: The Rockefeller University's Institutional Animal Care and Use Committee approved all in vivo protocols. A systemic infection model described in Daniel, A. et al., was used to test for the in vivo efficacy of PlySs2 against multiple gram-positive bacteria. Briefly, 4-5 week old female FVB/NJ mice (weight range 15 to 20 g) were obtained from The Jackson Laboratory (Bar Harbor, Me.). After a period of acclimation, mice were injected intraperitoneally (IP) with 0.5 ml of mid log-phase (OD600 0.5) bacteria diluted with 5% hog gastric mucin (Sigma) in saline. Bacterial suspensions contained ˜5×10^5 CFU/ml of MW2, a PVL toxin-encoding MRSA strain, ˜1×10^7 of MGAS5005, an M1 serotype of Streptococcus pyogenes that is virulent in humans and mice (Musser), or a combination of both bacteria simultaneously at the above concentrations for the mix infection experiments. Actual bacterial inoculation titers were calculated by serial dilution and plating to Columbia blood agar plates for each experiment. […] The survival rate for each experimental group was monitored every 12 hours for the first 24 hours then every 24 hours up to 10 days post-infection. The data were statistically analyzed by Kaplan Meier Survival curves and a Logrank test performed for 95% confidence intervals using the Prism computer program (GraphPad Software; La Jolla, Calif.). […]

S. aureus strains = test: PlySs2 lytic activity against species and strains (FIG. 25); format: cell-based, Staphylococcus aureus; settings: all tested S. aureus strains; 32 μg/ml, 60 minutes
Description: (§2) FIG. 25 provides PlySs2 activity against different species and strains. Log-phase cultures were exposed to 32 μg/ml PlySs2 for 60 minutes in phosphate buffer. The final OD600 of the treated samples were divided by the final OD600 of the untreated samples to generate the normalized values above. Multiple Staphylococci (including, but not limited to: MRSA, MSSA, and VISA), Streptococci, Listeria, Enterococci, and Bacilli were tested for susceptibility to PlySs2 activity. Escherichia and Pseudomonas were tested as Gram-negative controls.

S. pyogenes strains = test: as above; format: cell-based, Streptococcus pyogenes; settings: S. pyogenes serotypes M1, M3, M4, M6, M18, M49, variant without M protein
Description: as §2

[2] = tested on: vancomycin intermediate sensitivity Staphylococcus aureus (VISA) and vancomycin resistant Staphylococcus aureus (VRSA) strains; test: in vitro tests / standard MIC analysis of staphylococci (FIG. 18); format: cell-based; settings: comparable in vitro tests
Description: FIG. 18. PlySS2 was tested by standard MIC analysis for its ability to kill strains of staphylococci. Included in the testing were resistant staphylococci such as Vancomycin resistant (VRSA), Vancomycin intermediate (VISA) and methicillin resistant (MRSA) staphylococci. The three VRSA strains tested represent half of all known isolates.

B1: ΔPlySs1: truncated PlySs1 lysin, SEQ ID NO:2, N-terminal 254 amino acids: only N-terminal enzymatic and central binding domains (protein, listed as Streptococcus suis)
chain: MTINLETSIRWMSDRVGKVSYSMDYRNGPNSYDCSSAVYYALMAGGAISAGWAVNTEYMHDWLIRNGYVLVAENKPFNAQRHDVCILGKRGYSSGAGGHVVIFVDNVNVIHCNYARNGISIDNYNQVHRGMYYYLYRPANQPSISNKSLDQLVKETLAGVHGNGDTRKASLGSQYEAVMAVINGKASASEKSDEELAREVLAGKHGAGEDRKRSLGPRYEPVQAKVNELLKAKEKPSETAKNEPQTVQFKEDGDL
lysis value after 1 hr (treated/untreated OD600 ratio) (S. dysgalactiae 21597; 6.5 μg/ml): 0.26
lysis value after 1 hr (treated/untreated OD600 ratio) (S. dysgalactiae 21597; 13 μg/ml): 0.18
lysis value after 1 hr (treated/untreated OD600 ratio) (S. dysgalactiae 21597; 30 μg/ml): 0.12
lysis value after 1 hr (treated/untreated OD600 ratio) (S. dysgalactiae 21597; 65 μg/ml): 0.10
lysis value after 1 hr (treated/untreated OD600 ratio) (S. dysgalactiae 21597; 130 μg/ml): 0.09
lysis value after 1 hr (treated/untreated OD600 ratio) (S. salivarius 9222; 6.5 μg/ml): 0.80
lysis value after 1 hr (treated/untreated OD600 ratio) (S. salivarius 9222; 13 μg/ml): 0.76
lysis value after 1 hr (treated/untreated OD600 ratio) (S. salivarius 9222; 30 μg/ml): 0.56
lysis value after 1 hr (treated/untreated OD600 ratio) (S. salivarius 9222; 65 μg/ml): 0.53
lysis value after 1 hr (treated/untreated OD600 ratio) (S. salivarius 9222; 130 μg/ml): 0.37
lysis value after 1 hr (treated/untreated OD600 ratio) (S. rattus BHT; 6.5 μg/ml): 0.82
lysis value after 1 hr (treated/untreated OD600 ratio) (S. rattus BHT; 13 μg/ml): 0.84
lysis value after 1 hr (treated/untreated OD600 ratio) (S. rattus BHT; 30 μg/ml): 0.82
lysis value after 1 hr (treated/untreated OD600 ratio) (S. rattus BHT; 65 μg/ml): 0.83
lysis value after 1 hr (treated/untreated OD600 ratio) (S. rattus BHT; 130 μg/ml): 0.79
lysis value after 1 hr (treated/untreated OD600 ratio) (M. luteus 4698; 6.5 μg/ml): 0.84
lysis value after 1 hr (treated/untreated OD600 ratio) (M. luteus 4698; 13 μg/ml): 0.90
lysis value after 1 hr (treated/untreated OD600 ratio) (M. luteus 4698; 30 μg/ml): 0.83
lysis value after 1 hr (treated/untreated OD600 ratio) (M. luteus 4698; 65 μg/ml): 0.87
lysis value after 1 hr (treated/untreated OD600 ratio) (M. luteus 4698; 130 μg/ml): 0.82
lysis value after 1 hr (treated/untreated OD600 ratio) (B. anthracis ΔSterne; 6.5 μg/ml): 1.02
lysis value after 1 hr (treated/untreated OD600 ratio) (B. anthracis ΔSterne; 30 μg/ml): 1.02
lysis value after 1 hr (treated/untreated OD600 ratio) (B. anthracis ΔSterne; 65 μg/ml): 0.98
lysis value after 1 hr (treated/untreated OD600 ratio) (B. anthracis ΔSterne; 130 μg/ml): 0.90

B2: PlySs2: Streptococcus suis prophage lysin, SEQ ID NO:3; N-terminal CHAP domain and C-terminal SH3-type 5 domain (protein, listed as Streptococcus suis)
chain: MTTVNEALNNVRAQVGSGVSVGNGECYALASWYERMISPDATVGLGAGVGWVSGAIGDTISAKNIGSSYNWQANGWTVSTSGPFKAGQIVTLGATPGNPYGHVVIVEAVDGDRLTILEQNYGGKRYPVRNYYSAASYRQQVVHYITPPGTVAQSAPNLAGSRSYRETGTMTVTVDALNVRRAPNTSGEIVAVYKRGESFDYDTVIIDVNGYVWVSYIGGSGKRNYVATGATKDGKRFGNAWGTFK
reduction of colony forming units (CFUs) (MRSA MW2): 5 logs
reduction in CFU counts (S. agalactiae): dramatically reduced
minimum inhibitory concentration (MIC) (E. coli): too high to calculate; also recorded: immeasurable
survival of mixed infection [1]: 92%
survival of mixed infection (mice surviving/total) [1]: 22 of 24 and 22/24
susceptibility to PlySs2 lysis (S. aureus strains): highly susceptible
lytic activity (S. pyogenes strains): had activity against all strains of S. pyogenes
effectiveness against VISA and VRSA [2]: similarly effective
